This passage reports IC50, pseudovirus neutralization and IC80, pseudovirus neutralization results from patent publication US20240109955A1.

Common to all, as to test: cell-based or functional assay
In test [1] the target is SARS-CoV-2 spike (S) protein, Omicron sublineage BA.4/5 (SARS-CoV-2).
In test [2] the target is SARS-CoV-2 spike (S) protein, Omicron sublineage BQ.1 (SARS-CoV-2).
The target of test [3] is SARS-CoV-2 spike (S) protein, Omicron sublineage XBB (SARS-CoV-2).
In test [4] the target is SARS-CoV-2 spike (S) protein, Omicron sublineage BQ.1.1 (SARS-CoV-2).
Test [5] addresses SARS-CoV-2 spike (S) protein, Omicron sublineage BA.2.75.2 (SARS-CoV-2).

B1: MX1056 (trispecific antibody)
chain 1: DTVMTQSPLSLPVTPGEPASISCRSSQSLLNSNGYNYLDWYVQKPGQSPQLLIYLGSNRASGVPDRFSGSGSGTDFTLKISRVEAEDVGVYYCMQPLQTPLFTFGPGTKVEIKGGSSGEIVMTQSPAILSVSPGERATLSCRASQSVAINLAWYQQKPGQAPRLLIYAASSRATGIPGRFSGSGSETNFTLTISSLQSGDFAVYYCQQYITWPPSYTFGQGTKLEIKGGGGSGGSGSGGGGSASGSGEVQLVESGGALIQPGGSLRLSCAASGIIVSANYMSWVRQAPGKGLEWVSVIYSGGSTFYADSVKGRFTISRDNSKNTLYLEMNSLRAEDTAVYYCARDAPILGVSDWGQGTLVTVSSGGSSGQVTLRESGPALVKPTQTLTLTCTFSGFSLSTRGVCVSWIRQPPGKALEWLAFIDWDDDKYYNTSLKTRLTISKDTSKNQVVLTMTNVHPVDTATYYCARISSHHGSSWCTTFDYWGQGALVTVSAASGGSGDKTHTCPPCPAPELLGGPSVFLFPPKPKDTLMISRTPEVTCVVVDVSHEDPEVKFNWYVDGVEVHNAKTKPREEQYNSYVVSVLTVLHQDWLNGKEYKCKVSNKALPAPIEKTISKAKGQPREPQVYTLPPCRDELTKNQVSLWCLVKGFYPSDIAVEWESNGQPENNYKTTPPVLDSDGSFFKKLTVDKSRWQQGNVFSCSVLHEALHSHYTQKSLSLSPG
chain 2: DTVMTQSPLSLPVTPGEPASISCRSSQSLLNSNGYNYLDWYVQKPGQSPQLLIYLGSNRASGVPDRFSGSGSGTDFTLKISRVEAEDVGVYYCMQPLQTPLFTFGPGTKVEIKGGSSGQTVVTQEPSFSVSPGGTVTLTCGLSSGSVSTAYFPSWYQQTPGQAPRTLIYGTNTRSSGVPDRFSGSILGNKAALTITGAQADDESDYYCVLYMGRGIVVFGGGTKLTVLGGGGSGGSGSGGGGSASGSGQVQLVESGGGVVQPGRSLRLSCAASGFTLSSYGMHWVRQAPGKGLEWVAVISYDGSNKYYVDSVKGRFTISRDNSKNTLYLQMNSLRAEDTAVYYCRWAYWELLPDYYYGMDVWGQGTTVTVSSGGSSGQVTLRESGPALVKPTQTLTLTCTFSGFSLSTRGVCVSWIRQPPGKALEWLAFIDWDDDKYYNTSLKTRLTISKDTSKNQVVLTMTNVHPVDTATYYCARISSHHGSSWCTTFDYWGQGALVTVSAASGGSGDKTHTCPPCPAPELLGGPSVFLFPPKPKDTLMISRTPEVTCVVVDVSHEDPEVKFNWYVDGVEVHNAKTKPREEQYNSYVVSVLTVLHQDWLNGKEYKCKVSNKALPAPIEKTISKAKGQPREPQVCTLPPSRDELTKNQVSLSCAVKGFYPSDIAVEWESNGQPENNYKTTPPVLDSDGSFFLVSKLTVDKSRWQQGNVFSCSVLHEALHSHYTQKSLSLSPG
Consider B1, for which the IC50, pseudovirus neutralization in test [1] turned out to be 0.00412 µg/mL; in test [2] it was 0.013 µg/mL; in test [3] it was 0.00713 µg/mL; in test [4], 0.00584 µg/mL; in test [5] it was 0.00253 µg/mL. In addition, the IC80, pseudovirus neutralization in test [1] came out at 0.00589 µg/mL; in test [2] it was 0.0368 µg/mL; in test [3], 0.0236 µg/mL; in test [4] it was 0.0419 µg/mL; in test [5] it was 0.00992 µg/mL.

B2: MX1065 (trispecific antibody)
chain 1: QTVVTQEPSFSVSPGGTVTLTCGLSSGSVSTAYFPSWYQQTPGQAPRTLIYGTNTRSSGVPDRFSGSILGNKAALTITGAQADDESDYYCVLYMGRGIVVFGGGTKLTVLGGSSGEIVMTQSPAILSVSPGERATLSCRASQSVAINLAWYQQKPGQAPRLLIYAASSRATGIPGRFSGSGSETNFTLTISSLQSGDFAVYYCQQYITWPPSYTFGQGTKLEIKGGGGSGGSGSGGGGSASGSGEVQLVESGGALIQPGGSLRLSCAASGIIVSANYMSWVRQAPGKGLEWVSVIYSGGSTFYADSVKGRFTISRDNSKNTLYLEMNSLRAEDTAVYYCARDAPILGVSDWGQGTLVTVSSGGSSGQVQLVESGGGVVQPGRSLRLSCAASGFTLSSYGMHWVRQAPGKGLEWVAVISYDGSNKYYVDSVKGRFTISRDNSKNTLYLQMNSLRAEDTAVYYCRWAYWELLPDYYYGMDVWGQGTTVTVSSASGGSGDKTHTCPPCPAPELLGGPSVFLFPPKPKDTLMISRTPEVTCVVVDVSHEDPEVKFNWYVDGVEVHNAKTKPREEQYNSYVVSVLTVLHQDWLNGKEYKCKVSNKALPAPIEKTISKAKGQPREPQVYTLPPCRDELTKNQVSLWCLVKGFYPSDIAVEWESNGQPENNYKTTPPVLDSDGSFFKKLTVDKSRWQQGNVFSCSVLHEALHSHYTQKSLSLSPG
chain 2: QTVVTQEPSFSVSPGGTVTLTCGLSSGSVSTAYFPSWYQQTPGQAPRTLIYGTNTRSSGVPDRFSGSILGNKAALTITGAQADDESDYYCVLYMGRGIVVFGGGTKLTVLGGSSGDTVMTQSPLSLPVTPGEPASISCRSSQSLLNSNGYNYLDWYVQKPGQSPQLLIYLGSNRASGVPDRFSGSGSGTDFTLKISRVEAEDVGVYYCMQPLQTPLFTFGPGTKVEIKGGGGSGGSGSGGGGSASGSGQVTLRESGPALVKPTQTLTLTCTFSGFSLSTRGVCVSWIRQPPGKALEWLAFIDWDDDKYYNTSLKTRLTISKDTSKNQVVLTMTNVHPVDTATYYCARISSHHGSSWCTTFDYWGQGALVTVSAGGSSGQVQLVESGGGVVQPGRSLRLSCAASGFTLSSYGMHWVRQAPGKGLEWVAVISYDGSNKYYVDSVKGRFTISRDNSKNTLYLQMNSLRAEDTAVYYCRWAYWELLPDYYYGMDVWGQGTTVTVSSASGGSGDKTHTCPPCPAPELLGGPSVFLFPPKPKDTLMISRTPEVTCVVVDVSHEDPEVKFNWYVDGVEVHNAKTKPREEQYNSYVVSVLTVLHQDWLNGKEYKCKVSNKALPAPIEKTISKAKGQPREPQVCTLPPSRDELTKNQVSLSCAVKGFYPSDIAVEWESNGQPENNYKTTPPVLDSDGSFFLVSKLTVDKSRWQQGNVFSCSVLHEALHSHYTQKSLSLSPG
Regarding B2, the IC50, pseudovirus neutralization in test [2] stood at 0.0335 µg/mL; in test [3], 0.0125 µg/mL; in test [4] it was 0.014 µg/mL. Further, the figures for the IC80, pseudovirus neutralization in test [2], in test [3] and in test [4] were 0.086 µg/mL, 0.0167 µg/mL and 0.0206 µg/mL, respectively.

B3: MX1066 (trispecific antibody)
chain 1: B2 chain 1
chain 2: B1 chain 2
With B3, the IC50, pseudovirus neutralization came out at 0.0359 µg/mL in test [2], 0.0287 µg/mL in test [3] and 0.0284 µg/mL in test [4]. In addition, the IC80, pseudovirus neutralization in test [2] stood at 0.0413 µg/mL; in test [3] it was 0.0298 µg/mL; in test [4], 0.0307 µg/mL.
